# Experimental data from publication PMC5605669, “Dimerization regulates both deaminase-dependent and deaminase-independent HIV-1 restriction by APOBEC3G” (Nature Communications, 2017).
# Positions count from the first letter of the chain named. Names may count otherwise.
# B1: APOBEC3G, wild type (enzyme, human, UniProt Q9HC16 1-384, looked up)
# chain: MKPHFRNTVERMYRDTFSYNFYNRPILSRRNTVWLCYEVKTKGPSRPPLDAKIFRGQVYSELKYHPEMRFFHWFSKWRKLHRDQEYEVTWYISWSPCTKCTRDMATFLAEDPKVTLTIFVARLYYFWDPDYQEALRSLCQKRDGPRATMKIMNYDEFQHCWSKFVYSQRELFEPWNNLPKYYILLHIMLGEILRHSMDPPTFTFNFNNEPWVRGRHETYLCYEVERMHNDTWVLLNQRRGFLCNQAPHKHGFLEGRHAELCFLDVIPFWKLDLDQDYRVTCFTSWSPCFSCAQEMAKFISKNKHVSLCIFTARIYDDQGRCQEGLRTLAEAGAKISIMTYSEFKHCWDTFVDHQGCPFQPWDGLDEHSQDLSGRLRAILQNQEN
# B2: APOBEC3G R313A-D316A-D317A-Q318A (CTD mutant) (enzyme, human, UniProt Q9HC16 1-384, looked up)
# chain: B1 chain with R313A, D316A, D317A, Q318A
# notes: APOBEC3G (A3G), human, with R313A, D316A, D317A and Q318A in the C-terminal domain; The methods describe the making of A3G in general; also called RDDQ; RDDQ A3G; source: Sf9 cells (recombinant baculovirus), purified in the presence of RNase A
# B3: APOBEC3G F126A-W127A (NTD mutant) (enzyme, human, UniProt Q9HC16 1-384, looked up)
# chain: B1 chain with F126A, W127A
# notes: APOBEC3G (A3G), human, with F126A and W127A in the N-terminal domain; The methods describe the making of A3G in general; also called FW; FW A3G; source: Sf9 cells (recombinant baculovirus), purified in the presence of RNase A
# B4: APOBEC3G I314A-Y315A (CTD mutant) (enzyme, human, UniProt Q9HC16 1-384, looked up)
# chain: B1 chain with I314A, Y315A
# notes: APOBEC3G (A3G), human, with I314A and Y315A in the C-terminal domain; The methods describe the making of A3G in general; also called IY; IY A3G; source: Sf9 cells (recombinant baculovirus), purified in the presence of RNase A
# How the values were obtained:
# [1] = target: the molecule itself; test: cell-based or functional assay
# [2] = target: the molecule itself; test: AFM imaging; 70 nM A3G incubated 10 min with linearized m13 ssDNA in 10 mM Tris, 2.5 mM NaCl; deposited on APTES coated mica, imaged in liquid; monomers per cluster on ssDNA from cluster volume
# [3] = target: the molecule itself; test: optical tweezers (single-molecule ssDNA extension); fraction of bound A3G that stays stably bound after washing with buffer, against incubation time (200 to 1000 s) at 50 nM; single exponential fit gives the oligomerization rate on ssDNA at 80 pN
Protein,binding result [2],further results
B1,,"deaminase activity on labeled 118-nt ssDNA after 3 min pre-incubation of 25 nM A3G with unlabeled 69-nt trap ssDNA (0.5 to 5 mM as printed), fold reduction (threefold to 13-fold) [1]: 13 fold"
B2,binds,
B3,,fold reduction of oligomerization rate against WT [3]: 3 fold
B4,binds,
